The subject of one data set is p6AT-1. Briefly: Cleavage of minimal substrate p6AT-1 by RNase P RNA or holoenzyme (gel, autoradiography). It counts as biochemical. The procedure:
The chemically synthesized 42nt RNA molecule p6AT-l was 5′ end-labeled with high specific activity [γ-^32p] ATP ([…]) using bacteriophage T4 polynucleotide kinase. The labeling was performed in a 10 μl reaction at 37° C. for 30 min. The enzyme was heat-inactivated at 95° C. for 2 min. To remove salts, unincorporated nucleotides and the enzyme, p6AT-1 was gel purified from a 20% polyacrylamide TBE gel with 7M urea. The RNA was extracted from the gel slice and precipitated with 300 mM NaOAc and 2.5 volumes 100% ethanol. After a spin at 14,000 g and 4° C. the RNA pellet was washed twice with chilled 70% ethanol. The pellet was air dried and subsequently resuspended in 50 μl water. 0.5 μl were spotted onto a filter paper disk and counted in a scintillation counter (Cherenkov analysis).
(§1) E. coli M1 RNA is able to cleave ptRNA^met or the minimal substrate p6AT-1 in 100 mM NH4Cl, 100 mM TrisCl pH 7.5, 100 mM MgCl2. The conditions for cleavage of either substrate by S. aureus SP RNA were unknown and clearly deviated from those optimized for E. coli. A large number of different buffer conditions were investigated in order to determine optimal buffer conditions for either substrate cleavage by the S. aureus ribozyme.
(§2) Cleavage reactions (20 μl) were all performed at 37° C. for 30 min with 100 nM SP RNA and an additional 200 nM SP protein in the holoenzyme reactions. Substrates (ptRNA^met or p6AT-1) were added in trace amounts (single-turnover reactions). Cleavage was monitored by size resolution of the intact precursor and the cleaved leader sequence by denaturing gel elctrophoresis and autoradiography or visualization on the phosphorimager (Molecular Dynamics Storm 860).

For another data set, the system named is E. coli ptRNA^met. The data set is described as follows: Cleavage of ptRNAmet by RNase P RNA or holoenzyme (gel, autoradiography). Format: biochemical. The note with it: 100 mM TrisCl pH8, 100 mM MgCl2, 5% PEG. The procedure:
E. coli ptRNA^met, a substrate for RNase P, was transcribed in vitro by T7 RNA polymerase (Epicenter) in the presence of [α-32P] UTP to internally label the RNA. The DNA template pGem3Z-ptRNA was linearized with BstNI restriction endonuclease to allow run-off transcription. The transcription was performed in a 20 μl reaction at 37° C. for 60min. To remove unincorporated nucleotides the 93 nt RNA (sequence shown below) was cleaned under non-denaturing conditions using a CLONTECH Chroma-Spin 10 column. To calculate the specific activity of the RNA probe, 1 μl samples were removed before and after cleaning, mixed with 5 ml scintillation cocktail and counted in a scintillation counter. ptRNAmet in pGem-3Z, sequence of the transcript (93mer) 5′→3′ [SEQ ID NO: 12]: GGGCGAAUUCGCCUCGGCUACGUAGCUCAGUUGGUUAGAGCACAUCACUCAUAAUGAUGGGGUCACAGGUUCGAAUCCCGUCGUAGCCACCAG
as §1, §2

The subject of another data set is S. aureus pre-tRNA^phe. Briefly: RNase P kinetics (Michaelis Menten) with cloned pre-tRNAphe as substrate. Format: biochemical. The note with it: 50 mM Tris pH8.0, 1 M NH4Cl, 200 mM MgCl2, 5% PEG.
Another data set has as its target S. aureus RNase P RNA. Briefly: Filter binding / gel-shift assay of RNase P protein to RNase P RNA.

Read-outs that look alike come from different tables or passages of the source.

Experimental for S. aureus RNase P RNA: The RNase P RNA/protein interactions were investigated by gel mobility shift and filter binding experiments.
Binding isotherm of RNase P RNA obtained by filter binding assay was asswssed. The 3′-end labeled RNA was mixed with the protein in the binding buffer containing 20 mM K-Hepes, pH8.0, 0.01% NP-40, 400 mM NH4OAc, 10 mM MgCl2, and 5% glycererol. The Kd value was generated by fitting the data with Grafit 4 one-site ligand binding equation: % binding=plateau/(1+Kd/[S. aureus protein]).
Experimental for S. aureus pre-tRNA^phe: A cloned pre-tRNA^phe was used as a substrate for kinetic characterizations for both the holoenzyme and RNA only reactions.
RNase P RNA-only kinetics in the following buffer: 50 mM Tris, pH8.0, 1 M NH4Cl, 200 mM MgCl2, and 5% PEG. […] In both experiments, a cloned pre-tRNA^phe was used as substrate.

B1: SP RNA: S. aureus RNase P catalytic RNA component, transcribed in vitro from plasmid pSPR with T7 RNA polymerase; gene SEQ ID NO:3 (nucleic acid, listed as Staphylococcus aureus)
DNA: GTTCTGATATTTTGGGTAATCGCTATATTATATAGAGGAAAGTCCATGCTCACACAGTCTGAGATGATTGTAGTGTTCGTGCTTGATGAAACAATAAATCAAGGCATTAATTTGACGGCAATGAAATATCCTAAGTCTTTCGATATGGATAGAGTAATTTGAAAGTGCCACAGTGACGTAGCTTTTATAGAAATATAAAAGGTGGAACGCGGTAAACCCCTCGAGTGAGCAATCCAAATTTGGTAGGAGCACTTGTTTAACGGAATTCAACGTATAAACGAGACACACTTCGCGAAATGAAGTGGTGTACGACAGATGGTTATCACCTGAGTACCAGTGTGACTAGTGCACGTGATGAGTACGATGGAACAGAACATGGCTTATAGAAATATCACTACTA
modifications: RNA transcript of gene
On to B1, for which the p6AT-1 cleavage result in the data set on p6AT-1 (10 mM MgCl2, 2M KCl, 100 mM TrisCl pH8, 5% PEG) was “No cleavage”; in the data set on p6AT-1 (1M KCl or NH4Cl, 100 mM TrisCl pH7.5, 100 mM MgCl2), “hardly any cleavage product detectable”; in the data set with p6AT-1 (KCl below 400 mM, 100 mM TrisCl pH8, 100 mM MgCl2, 5% PEG), “No cleavage”. For the same molecule, the “p6AT-1 cleavage, maximal level” value in the data set on p6AT-1 (1.5M KCl, 100 mM TrisCl pH8, 100 mM MgCl2, 5% PEG, 37° C. 30 min, 100 nM SP RNA) is reported as 27%. For the same molecule, the ptRNAmet substrate processed result is “more than 50%” with E. coli ptRNA^met (150 mM KCl) and 82% with E. coli ptRNA^met (800 mM KCl). Also, the ptRNA cleaved in the data set with E. coli ptRNA^met (KCl 1M or above) came out at 85%. In the data set on S. aureus pre-tRNA^phe, the “pre-tRNAphe processing, RNA-only” value is on record as “efficiently processed”.

B2: S. aureus RNase P protein: 117 amino acid translation product of the S. aureus spp gene, SEQ ID NO:2, expressed as MBP fusion and cleaved (protein, listed as Staphylococcus aureus)
chain: MLLEKVYRIKKNADFGRIYKKGHSVANRQFVVYTCNNKEIDHFRLGISVSKKLGNAVLRNKIKRAIRENFKVHKSHILAKDIIVIARQPAKDMTTLQIQNSLEHVLKIAKVFNKKIK
Take B2: the Kd at S. aureus RNase P RNA (20 mM K-Hepes pH8.0, 0.01% NP-40, 400 mM NH4OAc, 10 mM MgCl2, 5% glycererol, 3′-end labeled RNA, read-out: Kd, filter binding isotherm) is 8 ± 1 nM; at S. aureus RNase P RNA (filter binding and gel-shift assays, read-out: binding constant of the complex), 20 nM.
